Results reported in patent US5578288, “Metal-binding targeted polypeptide constructs” (Cytogen Corporation, dated 1996).
Blank lines part the entries; values can stand above or below the binder they belong to. Where no end group is shown, it is not given here.

How the values were obtained:
[1] = target: receptor on murine NIH-3T3 fibroblast cells (ATCC No. CCL92) to which 125I-GRP binds (murine, UniProt P21729); assay: competition with 0.45 pM 125I-GRP on NIH-3T3 cells, filter assay
Protocol: Each tube was charged with 4 ×10^4 cells. […] Three control tubes with no cells or competitor were prepared for measurement of total counts added.
The samples were incubated for 30 min at RT. The contents of each tube were transferred into the wells of a 96-well filter bottom plate (Millipore Multiscreen, Arlington Heights, Mass.) and filtered under moderate vacuum (water aspirator). Each filter was washed three times by filling each well with ice cold PBS, Ph 7.4, 0.1% BSA. The plate was allowed to dry. Dried filters were placed into gamma-counter tubes (12×75 mm glass). The radioactivity on each filter and in the control tubes was counted using a LKB gamma counter. The bound/total added for each assay tube was calculated.

[2] = target: receptor on murine NIH-3T3 fibroblast cells (ATCC No. CCL92) to which 125I-GRP binds (murine) (UniProt P21729); assay: competition with […] 125I-GRP on NIH-3T3 cells; inhibitor at 1 nM
Sequence of receptor on murine NIH-3T3 fibroblast cells (ATCC No. CCL92) to which 125I-GRP binds (murine) (P21729 whole entry): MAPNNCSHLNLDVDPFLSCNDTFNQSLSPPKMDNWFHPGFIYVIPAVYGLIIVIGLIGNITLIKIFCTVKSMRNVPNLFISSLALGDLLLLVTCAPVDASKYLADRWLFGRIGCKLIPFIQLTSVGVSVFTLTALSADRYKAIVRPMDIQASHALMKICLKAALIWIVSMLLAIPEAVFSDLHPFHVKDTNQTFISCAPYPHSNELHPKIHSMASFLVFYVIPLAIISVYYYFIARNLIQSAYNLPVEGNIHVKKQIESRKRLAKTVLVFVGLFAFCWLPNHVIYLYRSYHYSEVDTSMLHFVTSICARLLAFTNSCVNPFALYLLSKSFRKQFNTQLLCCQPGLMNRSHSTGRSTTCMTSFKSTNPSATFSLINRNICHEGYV

[3] = target: receptor on murine NIH-3T3 fibroblast cells (ATCC No. CCL92) to which 125I-GRP binds (murine) (UniProt P21729); assay: competition with […] 125I-GRP on NIH-3T3 cells; inhibitor at 10 nM
[4] = target: receptor on murine NIH-3T3 fibroblast cells (ATCC No. CCL92) to which 125I-GRP binds (murine) (UniProt P21729); assay: competition with […] 125I-GRP on NIH-3T3 cells; inhibitor at 100 nM

- IC50 [1]: 10.6 nM
B1: Benzoic acid bis-thiourea derived from Neuromedin-C, compound 3 (peptide)
peptide: GNHWAVGHLM-NH2
modifications: not fully specified (N-terminus); also: dimer: two chains on one 3,5-disubstituted benzoic acid via N-terminal thioureas

- % BOUND (of I-125-GRP) [2]: 2.2%
- % INHIBITION [2]: 63%
- AVG CPM BOUND (of I-125-GRP) [2]: 1420 CPM
- % BOUND (of I-125-GRP) [3]: 1.7%
- % INHIBITION [3]: 71%
- AVG CPM BOUND (of I-125-GRP) [3]: 1130 CPM
- % BOUND (of I-125-GRP) [4]: 1.4%
- % INHIBITION [4]: 76%
- AVG CPM BOUND (of I-125-GRP) [4]: 940 CPM
Binder: H-GNHWAVGHLM-NH2 [Neuromedin C (NMc, H-Gly-Asn-His-Trp-Ala-Val-Gly-His-Leu-Met-NH2)]

- IC50 [1]: 43.3 nM
B2: Benzoic acid bis-thiosemicarbazide derived from N-acetyl-Neuromedin C-hydrazide, compound 6 (peptide)
peptide: Ac-GNHWAVGHLM
modifications: not fully specified (C-terminus); also: dimer: two chains on one 3,5-disubstituted benzoic acid via C-terminal thiosemicarbazides
